# In patent US20130012432A1 (Novo Nordisk, published 2013):
# Positions of bridges follow the written chain, without caps; N, C: chain ends. Non-standard residues stand in square brackets, D forms with d. Groups on a side chain read outwards from the residue. Primed or numbered codes have the meaning given here. *: point of attachment. X2 = (2-(2-(16-(tetrazol-5-yl)hexadecanoylamino)ethoxy)ethoxy)acetyl, O=C(CCCCCCCCCCCCCCCc1nn[nH]n1)NCCOCCOCC(=O)*; X5 = NH(2-(2-(2-(17-carboxyheptadecanoylamino)ethoxy)ethoxy)ethyl), O=C(O)CCCCCCCCCCCCCCCCC(=O)NCCOCCOCCN*; biscarboxymethyl = Lys(biscarboxymethyl) = Nepsilon-bis(carboxymethyl)-L-lysine; bis(carboxymethyl) = Lys(biscarboxymethyl) = N6-bis(carboxymethyl)-L-lysine; Palmitoyl(16-(5-tetrazolyl)) = O=C(CCCCCCCCCCCCCCCc1nnn[nH]1)*; biscarboxymethyl(3) = Nepsilon-bis(carboxymethyl) on Lys; Lys(CH2CO2H)2 = N[C@@H](CCCCN(CC(=O)O)CC(=O)O)C(=O)O; C17 diacid = O=C(O)CCCCCCCCCCCCCCCC(=O)*; C16 diacid = O=C(O)CCCCCCCCCCCCCCC(=O)*; Hyp = O=C(O)[C@@H]1C[C@@H](O)CN1; NTA = O=C(O)CN(CC(=O)O)CC(=O)*; hCys = N[C@@H](CCS)C(=O)O; Orn = NCCC[C@H](N)C(=O)O; Dab = NCC[C@H](N)C(=O)O; Dap = NC[C@H](N)C(=O)O; AEEA = NCCOCCOCC(=O)O
# Target: T1, human MC4 receptor (human, UniProt P32245 1-332)
# T1 construct: whole, on cells; Assayed as membranes of BHK cells stably expressing the receptor; also called melanocortin receptor subtype 4; melanocortin receptor 4
# Assay: 125I-NDP-α-MSH displacement, BHK-human MC4 membranes (Assay V);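 also: Filter-retained radioactivity read by gamma counting, with affinity obtained through non-linear regression fitting of the binding curves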
# T1 sequence (P32245 whole entry): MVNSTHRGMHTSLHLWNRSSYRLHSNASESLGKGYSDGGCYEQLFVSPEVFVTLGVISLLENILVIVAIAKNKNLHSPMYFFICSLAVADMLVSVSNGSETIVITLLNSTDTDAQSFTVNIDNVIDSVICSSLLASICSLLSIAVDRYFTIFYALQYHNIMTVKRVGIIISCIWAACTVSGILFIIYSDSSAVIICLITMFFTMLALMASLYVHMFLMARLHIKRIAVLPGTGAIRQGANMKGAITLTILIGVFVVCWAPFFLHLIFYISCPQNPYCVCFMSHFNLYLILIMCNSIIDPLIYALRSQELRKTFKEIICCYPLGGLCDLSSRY
row,Binder,Ki [nM]
1,Ac-CEH[dF]RWGCPPKE[Lys(CH2CO2H)2]K([AEEA-C16 diacid])-NH2 (disulfide 1-8; SMILES CC(=O)N[C@H]1CSSC[C@@H](C(=O)N2CCC[C@H]2C(=O)N2CCC[C@H]2C(=O)N[C@@H](CCCCN)C(=O)N[C@@H](CCC(=O)O)C(=O)N[C@@H](CCCCN(CC(=O)O)CC(=O)O)C(=O)N[C@@H](CCCCNC(=O)COCCOCCNC(=O)CCCCCCCCCCCCCCC(=O)O)C(N)=O)NC(=O)CNC(=O)[C@H](Cc2c[nH]c3ccccc23)NC(=O)[C@H](CCCNC(=N)N)NC(=O)[C@@H](Cc2ccccc2)NC(=O)[C@H](Cc2c[nH]cn2)NC(=O)[C@H](CCC(=O)O)NC1=O),55
2,Ac-[Dab]H[dF]RWDPPREK(biscarboxymethyl(3))K([AEEA-Palmitoyl(16-(5-tetrazolyl))])-NH2 (lactam 1-6),8.45
3,Ac-[Dab]H[dF]RWEPPRDK(biscarboxymethyl(3))K([AEEA-Palmitoyl(16-(5-tetrazolyl))])-NH2 (lactam 1-6),107
4,Ac-[Orn]H[dF]RWDPPHEK(biscarboxymethyl)K(X2)-NH2 (lactam 1-6),1.43
5,Ac-[Dab]H[dF]RWDPPHEK(biscarboxymethyl(3))K([AEEA-Palmitoyl(16-(5-tetrazolyl))])-NH2 (lactam 1-6),76
6,Ac-[Orn]H[dF]RWEPPHEK(bis(carboxymethyl))K([AEEA-C17 diacid])-NH2 (lactam 1-6),21.5
7,Ac-[Orn]H[dF]RWEPSSSK(bis(carboxymethyl))SSK([AEEA-C17 diacid])-NH2 (lactam 1-6),6.35
8,Ac-[hCys]Q[dF]RWCPPKD[Dap](NTA)K([AEEA-Palmitoyl(16-(5-tetrazolyl))])-NH2 (disulfide 1-6; SMILES CC(=O)N[C@H]1CCSSC[C@@H](C(=O)N2CCC[C@H]2C(=O)N2CCC[C@H]2C(=O)N[C@@H](CCCCN)C(=O)N[C@@H](CC(=O)O)C(=O)N[C@@H](CNC(=O)CN(CC(=O)O)CC(=O)O)C(=O)N[C@@H](CCCCNC(=O)COCCOCCNC(=O)CCCCCCCCCCCCCCCc2nnn[nH]2)C(N)=O)NC(=O)[C@H](Cc2c[nH]c3ccccc23)NC(=O)[C@H](CCCNC(=N)N)NC(=O)[C@@H](Cc2ccccc2)NC(=O)[C@H](CCC(N)=O)NC1=O),1.06
9,Ac-[hCys][Hyp][dF]RWCPPKD[Dap](NTA)K([AEEA-Palmitoyl(16-(5-tetrazolyl))])-NH2 (disulfide 1-6; SMILES CC(=O)N[C@H]1CCSSC[C@@H](C(=O)N2CCC[C@H]2C(=O)N2CCC[C@H]2C(=O)N[C@@H](CCCCN)C(=O)N[C@@H](CC(=O)O)C(=O)N[C@@H](CNC(=O)CN(CC(=O)O)CC(=O)O)C(=O)N[C@@H](CCCCNC(=O)COCCOCCNC(=O)CCCCCCCCCCCCCCCc2nnn[nH]2)C(N)=O)NC(=O)[C@H](Cc2c[nH]c3ccccc23)NC(=O)[C@H](CCCNC(=N)N)NC(=O)[C@@H](Cc2ccccc2)NC(=O)[C@@H]2C[C@@H](O)CN2C1=O),0.62
10,Ac-KH[dF]RWDPPHEESSEK([AEEA-C17 diacid])-NH2 (lactam 1-6; SMILES CC(=O)N[C@H]1CCCCNC(=O)C[C@@H](C(=O)N2CCC[C@H]2C(=O)N2CCC[C@H]2C(=O)N[C@@H](Cc2c[nH]cn2)C(=O)N[C@@H](CCC(=O)O)C(=O)N[C@@H](CCC(=O)O)C(=O)N[C@@H](CO)C(=O)N[C@@H](CO)C(=O)N[C@@H](CCC(=O)O)C(=O)N[C@@H](CCCCNC(=O)COCCOCCNC(=O)CCCCCCCCCCCCCCCC(=O)O)C(N)=O)NC(=O)[C@H](Cc2c[nH]c3ccccc23)NC(=O)[C@H](CCCNC(=N)N)NC(=O)[C@@H](Cc2ccccc2)NC(=O)[C@H](Cc2c[nH]cn2)NC1=O),30
11,Ac-[hCys]H[dF]RWCPPKEK(bis(carboxymethyl))K([AEEA-C16 diacid])-NH2 (disulfide 1-6),17
12,Ac-[hCys]H[dF]RWCPPSEK(bis(carboxymethyl))K([AEEA-C16 diacid])-NH2 (disulfide 1-6),70
13,Ac-[hCys]H[dF]RWCPPKDK(NTA)K([AEEA-Palmitoyl(16-(5-tetrazolyl))])-NH2 (disulfide 1-6; SMILES CC(=O)N[C@H]1CCSSC[C@@H](C(=O)N2CCC[C@H]2C(=O)N2CCC[C@H]2C(=O)N[C@@H](CCCCN)C(=O)N[C@@H](CC(=O)O)C(=O)N[C@@H](CCCCNC(=O)CN(CC(=O)O)CC(=O)O)C(=O)N[C@@H](CCCCNC(=O)COCCOCCNC(=O)CCCCCCCCCCCCCCCc2nnn[nH]2)C(N)=O)NC(=O)[C@H](Cc2c[nH]c3ccccc23)NC(=O)[C@H](CCCNC(=N)N)NC(=O)[C@@H](Cc2ccccc2)NC(=O)[C@H](Cc2c[nH]cn2)NC1=O),0.4
14,Ac-CEH[dF]RWCPPKE[Lys(CH2CO2H)2]K([AEEA-Palmitoyl(16-(5-tetrazolyl))])-NH2 (disulfide 1-7; SMILES CC(=O)N[C@H]1CSSC[C@@H](C(=O)N2CCC[C@H]2C(=O)N2CCC[C@H]2C(=O)N[C@@H](CCCCN)C(=O)N[C@@H](CCC(=O)O)C(=O)N[C@@H](CCCCN(CC(=O)O)CC(=O)O)C(=O)N[C@@H](CCCCNC(=O)COCCOCCNC(=O)CCCCCCCCCCCCCCCc2nnn[nH]2)C(N)=O)NC(=O)[C@H](Cc2c[nH]c3ccccc23)NC(=O)[C@H](CCCNC(=N)N)NC(=O)[C@@H](Cc2ccccc2)NC(=O)[C@H](Cc2c[nH]cn2)NC(=O)[C@H](CCC(=O)O)NC1=O),15
15,Ac-KH[dF]RWDPSSS[Lys(CH2CO2H)2]SS-X5 (lactam 1-6; SMILES CC(=O)N[C@H]1CCCCNC(=O)C[C@@H](C(=O)N2CCC[C@H]2C(=O)N[C@@H](CO)C(=O)N[C@@H](CO)C(=O)N[C@@H](CO)C(=O)N[C@@H](CCCCN(CC(=O)O)CC(=O)O)C(=O)N[C@@H](CO)C(=O)N[C@@H](CO)C(=O)NCCOCCOCCNC(=O)CCCCCCCCCCCCCCCCC(=O)O)NC(=O)[C@H](Cc2c[nH]c3ccccc23)NC(=O)[C@H](CCCNC(=N)N)NC(=O)[C@@H](Cc2ccccc2)NC(=O)[C@H](Cc2c[nH]cn2)NC1=O),2.75
